Patent CN110623921A (BEIJING DONGFANG BIOTECH CO LTD, dated 2019)

T1: CD19 (细胞表面CD19, Raji细胞) (UniProt P15391 20-556, limits assumed)
T1 sequence (looked up): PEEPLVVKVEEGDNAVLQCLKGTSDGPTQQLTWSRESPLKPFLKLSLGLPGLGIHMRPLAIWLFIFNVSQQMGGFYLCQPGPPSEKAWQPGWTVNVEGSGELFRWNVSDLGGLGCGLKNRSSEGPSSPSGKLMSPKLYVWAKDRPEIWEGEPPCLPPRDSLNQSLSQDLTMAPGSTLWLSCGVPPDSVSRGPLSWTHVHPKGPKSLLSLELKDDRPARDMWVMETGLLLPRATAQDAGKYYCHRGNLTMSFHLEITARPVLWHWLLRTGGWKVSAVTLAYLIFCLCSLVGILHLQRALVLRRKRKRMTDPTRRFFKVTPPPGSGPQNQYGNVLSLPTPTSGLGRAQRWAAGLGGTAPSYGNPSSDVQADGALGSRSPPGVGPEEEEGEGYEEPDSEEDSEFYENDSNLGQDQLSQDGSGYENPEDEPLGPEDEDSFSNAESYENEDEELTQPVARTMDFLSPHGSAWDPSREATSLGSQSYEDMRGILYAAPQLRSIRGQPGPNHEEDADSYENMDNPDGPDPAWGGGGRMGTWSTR


Assays:
[1] = molecular target: T1, CD19 (细胞表面CD19, Raji细胞); assay: cell-based or functional assay
[2] = molecular target: T1, CD19 (细胞表面CD19, Raji细胞); assay: flow cytometry on Raji cells, Alexa488 anti-human IgG-Fc, MFI fitted in GraphPad Prism
[3] = molecular target: T2, CD3 (细胞表面CD3, Jurkat细胞); assay: flow cytometry on Jurkat cells, Alexa488 anti-human IgG-Fc, MFI fitted in GraphPad Prism
T2 construct: whole, on cells; also called CD3抗原; CD3阳性的Jurkat细胞
T2 sequence (P07766 23-207): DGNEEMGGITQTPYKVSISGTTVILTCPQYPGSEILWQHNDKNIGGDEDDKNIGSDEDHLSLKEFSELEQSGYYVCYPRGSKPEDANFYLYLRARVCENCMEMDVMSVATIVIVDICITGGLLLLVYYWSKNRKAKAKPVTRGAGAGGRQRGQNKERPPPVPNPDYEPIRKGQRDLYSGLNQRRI

Row | Binder | EC50 of PBMC-mediated killing of Raji cells (LDH release) [1] [nM] | EC50 [2] [nM] | EC50 [3] [nM]
1 | 抗CD3和抗CD19双特异性抗体JY039 (bispecific antibody) chain 1: not shown chain 2: not shown chain 3: QVQLQQSGAELVRPGSSVKISCKASGYAFSSYWMNWVKQRPGQGLEWIGQIWPGDGDTNYNGKFKGKATLTADESSSTAYMQLSSLASEDSAVYFCARRETTTVGRYYYAMDYWGQGTTVTVSS chain 4: DIQLTQSPASLAVSLGQRATISCKASQSVDYDGDSYLNWYQQIPGQPPKLLIYDASNLVSGIPPRFSGSGSGTDFTLNIHPVEKVDAATYHCQQSTEDPWTFGGGTKLEIK | 0.00126 | 1.02 | 21.6
2 | 抗CD19的单克隆抗体 (JY039的抗CD19序列构建) (antibody, V domains shown, also called AntiCD19McAb; 抗CD19单克隆抗体) VH: QVQLQQSGAELVRPGSSVKISCKASGYAFSSYWMNWVKQRPGQGLEWIGQIWPGDGDTNYNGKFKGKATLTADESSSTAYMQLSSLASEDSAVYFCARRETTTVGRYYYAMDYWGQGTTVTVSS VL: DIQLTQSPASLAVSLGQRATISCKASQSVDYDGDSYLNWYQQIPGQPPKLLIYDASNLVSGIPPRFSGSGSGTDFTLNIHPVEKVDAATYHCQQSTEDPWTFGGGTKLEIK | 0.222 | 0.191 | 
